Source: patent US20130115635A1 (VIB VZW, published 2013)
Changes are numbered by the printed parent chain.

Assays:
α-synuclein [1] = biological target: T1, α-synuclein (UniProt P37840 1-140); test: phage display panning on immobilised antigen
Rev-[…] = biological target: T2, Rev-[…] (HIV); test: colocalisation in double-transfected HeLa cells, confocal microscopy
T2 construct: also called HIV-Rev-EPEA

β-synuclein = biological target: T3, β-synuclein (UniProt Q16143 1-134); test: phage display panning on immobilised antigen
T3 construct: also called beta-synuclein
T3 sequence (Q16143 whole entry): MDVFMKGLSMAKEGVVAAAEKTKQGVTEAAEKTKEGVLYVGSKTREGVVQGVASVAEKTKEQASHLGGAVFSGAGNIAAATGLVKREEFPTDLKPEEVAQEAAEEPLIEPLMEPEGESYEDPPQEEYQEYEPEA

Nb458-… (CA2944) = test: affinity capture on NbSyn2 sepharose, elution with 1 M NaCl, SDS-PAGE
Nb458-gaaEPEA (CA2945) [2] = biological target: T4, Nb458-gaaEPEA (CA2945); test: as above
T4 construct: also called Nb458 tagged with the gaaEPEA tag
T4 sequence (VHH, as listed by the source): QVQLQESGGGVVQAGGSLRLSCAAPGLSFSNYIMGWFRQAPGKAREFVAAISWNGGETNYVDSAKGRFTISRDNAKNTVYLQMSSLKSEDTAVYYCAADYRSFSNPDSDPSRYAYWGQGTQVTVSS

α-synuclein [3] = biological target: T1, α-synuclein; test: ITC, 293.1 K
α-synuclein [4] = biological target: T1, α-synuclein; test: ITC, 310.1 K
α-synuclein [5] = biological target: T1, α-synuclein; test: ITC, 303.1 K
α-synuclein [6] = biological target: T1, α-synuclein; test: ITC, 298.1 K
Nb458-gaaEPEA (CA2945) [7] = biological target: T4, Nb458-gaaEPEA (CA2945); test: ELISA: Nb458-gaaEPEA coated at 0.1 or 0.01 µg/well, detected with biNbSyn2 alkaline phosphatase conjugate at dilutions 1/250 to 1/4000, OD405 after 60 minutes
α-synuclein [8] = biological target: T1, α-synuclein; test: 15N-1H HSQC NMR titration

B1: NbSyn1b (VHH)
VHH: DVQLVESGGGSVQAGGSLRLSCAPSGLNASSYCMGWFRQSPGKEREGVARINGNAGIKTAYADSVKDRFTLSRDNAKNTVYLQMNSLKAEDSAMYYCAAKSSPGYCGGNWDNFGYWGQGTQVTVSS
B1: binds (α-synuclein [1]).

B2: NbSyn1a-mKO1 (VHH)
VHH: B1 VHH with D1E, R19S, S21A, M94I, Y96F
notes: not shown: mKO1, mKusabira orange fluorescent protein
B2: binds (Rev-[…]).

B3: NbSyn1a-GFP (VHH)
VHH: B1 VHH with D1E, R19S, S21A, M94I, Y96F
B3: binds (Rev-[…]).

B4: NbSyn1a (VHH)
VHH: B1 VHH with D1E, R19S, S21A, M94I, Y96F
B4: binds (α-synuclein [1]).

B5: NbSyn1c (VHH)
VHH: B1 VHH with D1Q, S25L
B5: binds (α-synuclein [1]).

B6: Nb85 (VHH)
VHH: QVQLQESGGGSVQAGGSLRLSCAASGLTYSNYCMGWFRQAPGKAREVVARISTRGIKTYYADSVNGRFTISRDNAKNMVYLQMNSLKPEDTAIYYCAAVIYPGYGDSCPWTTSVNYWGQGTQVTVSS
notes: also called NbSyn85
B6: binds (β-synuclein).

B7: NbSyn2 (VHH)
VHH: QGQLVESGGGSVQAGGSLRLSCAASGIDSSSYCMGWFRQRPGKEREGVARINGLGGVKTAYADSVKDRFTISRDNAENTVYLQMNSLKPEDTAIYYCAAKFSPGYCGGSWSNFGYWGQGTQVTVSS
notes: also called His-tagged NbSyn2; NbSyn2-His6tagged
In the case of B7, the binding result (Nb458-… (CA2944)) is reported as “binds”, the binding result (Nb458-gaaEPEA (CA2945) [2]) is reported as “binds” and the Stoichiometry (α-synuclein [3]) is reported as 0.99. For the same binder, the Kd (α-synuclein [4]) was 260 nM, the Stoichiometry (α-synuclein [4]) was 0.91 and the Kd (α-synuclein [5]) was 99 nM. The Stoichiometry (α-synuclein [5]) was 0.87 and the Stoichiometry (α-synuclein [6]) was 0.93.

B8: biNbSyn2 alkaline phosphatase conjugate (VHH)
chain: QVQLVESGGGSVQAGGSLRLSCAASGIDSSSYCMGWFRQRPGKEREGVARINGLGGVKTAYADSVKDRFTISRDNAENTVYLQMNSLKPEDTAIYYCAAKFSPGYCGGSWSNFGYWGQGTQVTVSSGGGGSGGGSQVQLQESGGGSVQAGGSLRLSCAASGIDSSSYCMGWFRQRPGKEREGVARINGLGGVKTAYADSVKDRFTISRDNAENTVYLQMNSLKPEDTAIYYCAAKFSPGYCGGSWSNFGYWGQGTQVTVSSHHHHHH
notes: also called biNbSyn2-AP; bivalent NbSyn2
B8: binds (Nb458-gaaEPEA (CA2945) [7]).

B9: Nb87 (VHH)
VHH: QVQLQESGGGSVQTGGSLRLSCVASGYSGYMAWFRQAPGKEREGIAAIYRGDKITYYAHSVQGRFTISQANAKNTVYLLMNSLKPEDTAIYYCAARRVVADSPLLSKTYAYWGQGTQVTVSS
B9: binds (β-synuclein); binds (α-synuclein [8]).

B10: Nb86 (VHH)
VHH: QVQLQESGGGSVQAGGSLRLSCALSGYTFRGNRMAWFRQAPGKEREGVARINTGGVNTYVADSVKGRFTISQDNAKNTVYLQMNNLQPEDTAMYFCAADLTGWRPVGFSGYNYWGQGTQVTVSS
B10: binds (β-synuclein).
